This is an account of results in patent US10736970B2, “Polypeptide complex of titin-telethonin beta-pleated sheet structure as polypeptide drug carrier, method of using the polypeptide complex, and fusion protein complex thereof” (TIANJIN INSTITUTE OF INDUSTRIAL BIOTECHNOLOGY, CHINESE …, priority 2015, dated 2020).

The conditions of data set [1]: literature / background value; cited from earlier work.
The test system of data set [2] is SD rats. The data set is described as follows: Oral glucose tolerance test (OGTT) in rats, blood glucose. As to conditions: single i.p. 25 nmol/kg. In kind it is in vivo, rat. How it is done: (§1) The rats in the first three groups were given 25 nmol/kg by intraperitoneal injection, the rats in the PBS group were given the same volume of PBS, and the blood glucose was measured by a blood glucose meter. After 30 min, 2 g glucose/kg body weight was given by oral gavage, which was assumed to occur at 0 min, and then the blood glucose level was measured respectively at 10, 30, 60, 90, and 120 min. The area under curve (AUC) was calculated using Graphpad Prism 6.0 software. During the process, blood was taken from the tail vein respectively at 0, 10, and 30 min, added to a centrifuge tube containing EDTA-Na2, and centrifuged at 4000 rpm for 10 min. The supernatant was collected, and the insulin content was measured by using the Rat/Mouse Insulin Elisa kit (Millipore).
SD rats of about 250 g were randomized into 4 groups (n=5), including a 1 nmol/kg group, a 5 nmol/kg group, a 25 nmol/kg group, and a PBS group.
The animals were allowed to free access to food for 12 h, and then fasted for 12 h. Then, OGTT was carried out. […]
The blood glucose level was measured by a blood glucose meter, and this was assumed to occur at −30 min. […] Then, the blood glucose was measured respectively at 10, 30, 60, 90, and 120 min. The area under curve (AUC) was calculated using Graphpad Prism 6.0 software.

For data set [3], the system named is SD rats. In words: Insulin content in rat plasma during OGTT. In kind it is in vivo. The note with it: single i.p. 25 nmol/kg. As to the method:
as §1
In the OGTT test of each group, blood was taken from the tail vein of rats at a time ranging from 10 to 30 min, and added dropwise to an Ep tube containing EDTA-Na2. The plasma was removed, and the insulin content was determined by using the Insulin Elisa kit (Millipore).
(§2) During the process, blood was taken from the tail vein at a time ranging from 10 to 30 min, added to a centrifuge tube containing EDTA-Na2, and centrifuged at 4000 rpm for 10 min. The supernatant was collected, and the insulin content was measured by using the Rat/Mouse Insulin Elisa kit (Millipore).

For data set [4] the following is noted: rat, in vivo. How it is done:
Blood was sampled from the tail respectively at 0, 0.5, 1, 1.5, 2, 4, 6, and 10 h, and dripped into an Ep tube pretreated with EDTA-Na2. A DPP-4 inhibitor was immediately added (in 30 s) after the blood was sampled.
Then, blood was taken respectively at 1, 2, 4, 8, and 24 h, and added dropwise to an Ep tube pretreated with EDTA-Na2.
1 nmol GLZ/TeN was administered to the SD rats (about 250 g) by intravenous (i.v) injection at the tail and by subcutaneous injection (s.c), and this was assumed to occur at 0 h. Blood was sampled from the tail vein of the rats respectively at 0.05, 0.5, 2, 4, 8, 11, 24, and 48 h, and dripped into an Ep tube pretreated with EDTA-Na2. The protease inhibitor protinin was immediately added (in 30 s) after the blood was sampled.
2.8 nmol GLRecom was administered to the SD rats (about 250 g) by intravenous (i.v) injection at the tail, and this was assumed to occur at 0 h. Blood was sampled from the tail vein of the rats respectively at 0.05, 0.5, 2, 5, 10, 24, and 48 h, and dripped into a centrifugation tube pretreated with EDTA-Na2. The protease inhibitor protinin was immediately added (in 30 s) after the blood was sampled.

Data set [5] has as its system C57BL/6 mice. The data set is described as follows: OGTT in C57BL/6 mice, blood glucose. The data set is classed as in vivo, mouse. As to conditions: i.p. 10 nmol/kg. How it is done: C57BL/6 mice of about 25 g were randomized into 3 groups (n=5), including a PBS group, a Z1Z2/GLTe-G group, and a GLRecom group. The animals in the Z1Z2/GLTe-G group and the GLRecom group were given the Z1Z2/GLTe-G and GLRecom respectively by intraperitoneal injection at a dosage of 10 nmol/kg body weight, and the animals in the PBS group were given the same volume of PBS. The blood glucose level was measured by a blood glucose meter, and this was assumed to occur at −30 min. After 30 min, 2 g glucose/kg body weight was given by oral gavage, and this was assumed to occur at 0 min. Then, the blood glucose was measured respectively at 10, 30, 60, 90, and 120 min. The AUC was calculated by using the Graphpad Prism 6.0 software.

Data set [6] deals with C57BL/6 mice. In words: Insulin content during OGTT in C57BL/6 mice. In kind it is in vivo, mouse. As to conditions: i.p. 10 nmol/kg. How it is done:
as §2

As for Peptide Tyrosin-tyrosin [PYY], the “in-vivo half-life period of native peptide” value in data set [1] is recorded as 8 min.

For the molecule `CC[C@H](C)[C@H](NC(=O)[C@H](Cc1ccccc1)NC(=O)[C@H](CCC(=O)O)NC(=O)[C@H](CCCCN)NC(=O)[C@H](C)NC(=O)[C@H](C)NC(=O)[C@H](CCC(N)=O)NC(=O)CNC(=O)[C@H](CCC(=O)O)NC(=O)[C@H](CC(C)C)NC(=O)[C@H](Cc1ccc(O)cc1)NC(=O)[C@H](CO)NC(=O)[C@H](CO)NC(=O)[C@@H](NC(=O)[C@H](CC(=O)O)NC(=O)[C@H](CO)NC(=O)[C@@H](NC(=O)[C@H](Cc1ccccc1)NC(=O)[C@@H](NC(=O)CNC(=O)[C@H](CCC(=O)O)NC(=O)[C@H](C)NC(=O)[C@@H](N)Cc1c[nH]cn1)[C@@H](C)O)[C@@H](C)O)C(C)C)C(=O)N[C@@H](C)C(=O)N[C@@H](Cc1c[nH]c2ccccc12)C(=O)N[C@@H](CC(C)C)C(=O)N[C@H](C(=O)N[C@@H](CCCCN)C(=O)NCC(=O)N[C@@H](CCCNC(=N)N)C(=O)NCC(=O)O)C(C)C` [GLP-1, Glucagon-like peptide 1, reference compound], the “period of time of effective blood glucose control in OGTT” value with SD rats [2] turned out to be 30 min. Moreover, in the data set on SD rats [2] (2 g glucose/kg oral after 30 min), the “effect on blood glucose level in OGTT” value is reported as “significantly reduce the blood glucose level”. Further, the “blood insulin content during OGTT” value in the data set on SD rats [3] is listed as “significantly increase the blood insulin content”.

B1: GLRecom: Single fusion protein: GLP-1(8G)-Z1Z2, Telethonin beta-pleated sheet region and second Z1Z2 connected via linkers (SEQ ID NO: 20), 60.0 kDa (protein)
chain: MKHHHHHHPMSDYDIPTTENLYFQHGEGTFTSDVSSYLEGQAAKEFIAWLVKGRGGGGGSGGGGSGGGGSAMATQAPTFTQPLQSVVVLEGSTATFEAHISGFPVPEVSWFRDGQVISTSTLPGVQISFSDGRAKLTIPAVTKANSGRYSLKATNGSGQATSTAELLVKAETAPPNFVQRLQSMTVRQGSQVRLQVRVTGIPTPVVKFYRDGAEIQSSLDFQISQEGDLYSLLIAEAYPEDSGTYSVNATNSVGRATSTAELLVQGSGSGSAPGTPGGGGSGGGGSGGGGSMATSELSSEVSEENSERREAFWAEWKDLTLSTRPEEGSSLHEEDTQRHETYHQQGQSQVLVQRSPWLMMRMGILGRGLQEYQLPYQRVLPGASGPAGSPTGSGPGSAGSGPGSAGMATQAPTFTQPLQSVVVLEGSTATFEAHISGFPVPEVSWFRDGQVISTSTLPGVQISFSDGRAKLTIPAVTKANSGRYSLKATNGSGQATSTAELLVKAETAPPNFVQRLQSMTVRQGSQVRLQVRVTGIPTPVVKFYRDGAEIQSSLDFQISQEGDLYSLLIAEAYPEDSGTYSVNATNSVGRATSTAELLVQG
For the molecule B1, the “half-life period after intravenous injection” value in data set [4] came out at 13.4 ± 0.8 h. In addition, in data set [4] (iv), the “half-life period relative to Z1Z2/GLTe-G complex (4 h)” value was “more than 3 times”. Moreover, in the data set with C57BL/6 mice [5], the “AUC of blood glucose in OGTT” value is on record as “significantly reduced”. In addition, the “blood glucose reducing effect in OGTT” value in the data set on C57BL/6 mice [5] (2 g/kg glucose) is given as “significant blood glucose reducing effect”. The “blood glucose level at 120 min in OGTT” value in the data set with C57BL/6 mice [5] (120 min) is given as “still significantly reduced”. In the data set on C57BL/6 mice [6], the “level of insulin secretion” value is “significantly enhance the level of insulin secretion”.
